Source: PMC3336205, “The generation and evaluation of two panels of epitope-matched mouse IgG1, IgG2a, IgG2b and IgG3 antibodies specific for Plasmodium falciparum and Plasmodium yoelii merozoite surface protein 1–19 (MSP1_(19))” (Experimental Parasitology, 2012)

B1: mouse IgG1-B10 (PyMSP1_(19)-specific recombinant mouse IgG1) (antibody, V domains shown)
VH: QVQLQQSGPELVKPGASVKVSCKASGYAFTSYNMYWVKQSHGKSLEWIGYIDPYNGGTSYNQKLKGKATLTVDKSSSTAYIHLNSLTSEDSAVYYCTIHYYGYGGFAYWGQGTTVTSS
VL: DIELTQSTAIMSASPGEKVTMTCSASSSVRYMYWYQQKPGSSPRLLIYDTSKLASGVPVRFSGSGSGTSYSLAISRMEAEDAASYYCQQWSSYPPTLGGGTKLEIK
notes: VH of B10 (anti-PyMSP1_19), from pB10-VH/5; mouse IgG1 heavy-chain constant region, amplified from BALB/c genomic DNA; VL of B10, from pB10-VL/10; mouse kappa light chain constant region, amplified from BALB/c genomic DNA; Plasmids pVH-B10-mIgG1 and pVL-B10-mouse kappa; source: HEK-293T, stably transfected; culture supernatant
B2: mouse IgG3-B10 (PyMSP1_(19)-specific recombinant mouse IgG3) (antibody, V domains shown)
VH: B1 VH
VL: B1 VL
notes: VH of B10 (anti-PyMSP1_19), from pB10-VH/5; mouse IgG3 heavy-chain constant region, amplified from genomic DNA; VL of B10, from pB10-VL/10; mouse kappa light chain constant region, amplified from BALB/c genomic DNA; Plasmids pVH-B10-mIgG3 and pVL-B10-mouse kappa; source: CHO-K1, stably transfected; culture supernatant
B3: mouse IgG2a-B10 (PyMSP1_(19)-specific recombinant mouse IgG2a) (antibody, V domains shown)
VH: B1 VH
VL: B1 VL
notes: VH of B10 (anti-PyMSP1_19), from pB10-VH/5; mouse IgG2a heavy-chain constant region, amplified from genomic DNA; VL of B10, from pB10-VL/10; mouse kappa light chain constant region, amplified from BALB/c genomic DNA; Plasmids pVH-B10-mIgG2a and pVL-B10-mouse kappa; source: CHO-K1, stably transfected; culture supernatant
B4: mouse IgG2b-B10 (PyMSP1_(19)-specific recombinant mouse IgG2b) (antibody, V domains shown)
VH: B1 VH
VL: B1 VL
notes: VH of B10 (anti-PyMSP1_19), from pB10-VH/5; mouse IgG2b heavy-chain constant region, amplified from genomic DNA; VL of B10, from pB10-VL/10; mouse kappa light chain constant region, amplified from BALB/c genomic DNA; Plasmids pVH-B10-mIgG2b and pVL-B10-mouse kappa; source: CHO-K1, stably transfected; culture supernatant
B5: mouse IgG1-C1 (PfMSP1_(19)-specific recombinant mouse IgG1) (antibody, V domains shown)
VH: EVQLVQSGPEVKKPGASVKVSCKTSGYSFTSYDINWVRQAPGQGLEWMGRISPYNGKTDYTQTLRGRVTMSTDTSTTTVYLELRSLKSDDTAVYYCAREGVWFAELLSWGEGTLVTVSS
VL: DIVMTQTPGTLSLSPGERATLSCRASQSVSGNYLAWYQQKPGQAPRLLIHGSSDRAAGTPDRFSGRGSGTDFTLTISRLEPEDFAVYYCQQYCSSPFTFGPGTKVEIK
notes: VH of C1 (anti-PfMSP1_19), as the VH of m7; mouse IgG1 heavy-chain constant region, amplified from BALB/c genomic DNA; VL of C1, as the VL of m7; mouse kappa light chain constant region, amplified from BALB/c genomic DNA; Plasmids pVH-C1-mIgG1 and pVL-C1-mouse kappa; also called mIgG1-C1; murine IgG1-C1; source: HEK-293T, stably transfected; culture supernatant, and purified (protein G-Sepharose)
B6: human IgG1-C1 (JS1), parental human IgG1 antibody (antibody, V domains shown)
VH: B5 VH
VL: B5 VL
notes: VH of C1 (anti-PfMSP1_19); human IgG1 heavy-chain constant region; VL of C1; light-chain constant region of pVKExpress C1; IgG1; also called hIgG1-C1; (h)IgG1-C1
B7: mouse IgG2a-C1 (PfMSP1_(19)-specific recombinant mouse IgG2a) (antibody, V domains shown)
VH: B5 VH
VL: B5 VL
notes: VH of C1 (anti-PfMSP1_19), as the VH of m7; mouse IgG2a heavy-chain constant region, amplified from genomic DNA; VL of C1, as the VL of m7; mouse kappa light chain constant region, amplified from BALB/c genomic DNA; Plasmids pVH-C1-mIgG2a and pVL-C1-mouse kappa; also called mIgG2a-C1; source: CHO-K1, stably transfected; culture supernatant, and purified (protein G-Sepharose)
B8: mouse IgG3-C1 (PfMSP1_(19)-specific recombinant mouse IgG3) (antibody, V domains shown)
VH: B5 VH
VL: B5 VL
notes: VH of C1 (anti-PfMSP1_19), as the VH of m7; mouse IgG3 heavy-chain constant region, amplified from genomic DNA; VL of C1, as the VL of m7; mouse kappa light chain constant region, amplified from BALB/c genomic DNA; Plasmids pVH-C1-mIgG3 and pVL-C1-mouse kappa; also called mIgG3-C1; source: CHO-K1, stably transfected; culture supernatant, and purified (protein G-Sepharose)
B9: mouse IgG2b-C1 (PfMSP1_(19)-specific recombinant mouse IgG2b) (antibody, V domains shown)
VH: B5 VH
VL: B5 VL
notes: VH of C1 (anti-PfMSP1_19), as the VH of m7; mouse IgG2b heavy-chain constant region, amplified from genomic DNA; VL of C1, as the VL of m7; mouse kappa light chain constant region, amplified from BALB/c genomic DNA; Plasmids pVH-C1-mIgG2b and pVL-C1-mouse kappa; also called mIgG2b-C1; source: CHO-K1, stably transfected; culture supernatant, and purified (protein G-Sepharose)

Legend:
[1] = biological target: T1, recombinant PyMSP1_(19)-GST (Plasmodium yoelii yoelii (strain not …, UniProt P13828)); test: ELISA; five micrograms of recombinant purified antigen (PfMSP1_19-GST or PyMSP1_19-GST) coated; culture supernatant of secreting clones; detected with HRP anti-mouse IgG Fc-specific or anti-mouse kappa light chain secondary antibodies; read at 450 nm; details: one partner purified
T1 construct: merozoite surface protein 1 (MSP1), Plasmodium yoelii, C-terminal 19-kDa region (MSP1_19), homologous to PfMSP1_19; also called P. yoelii MSP1_(19); source: recombinant, purified (Lewis, 1989)

[2] = biological target: T2, recombinant PfMSP1_(19)-GST (Plasmodium falciparum, strain not …, UniProt P04933); test: SPR; BIAcore X; PfMSP1_19-GST (50 μg/ml) amine-coupled to a CM5 chip; purified IgGs injected at 2, 1, 0.5, 0.25 and 0.125 μM, 50 μL at 10 μL/min; control Ag in flow cell 2; details: both partners purified
T2 construct: merozoite surface protein 1 (MSP1), Plasmodium falciparum, C-terminal 19-kDa region (MSP1_19); also called C-terminal 19-kDa region of Plasmodium falciparum merozoite surface protein 1; source: recombinant, purified (Burghaus and Holder, 1994)

T1 sequence (P13828 whole entry, looked up): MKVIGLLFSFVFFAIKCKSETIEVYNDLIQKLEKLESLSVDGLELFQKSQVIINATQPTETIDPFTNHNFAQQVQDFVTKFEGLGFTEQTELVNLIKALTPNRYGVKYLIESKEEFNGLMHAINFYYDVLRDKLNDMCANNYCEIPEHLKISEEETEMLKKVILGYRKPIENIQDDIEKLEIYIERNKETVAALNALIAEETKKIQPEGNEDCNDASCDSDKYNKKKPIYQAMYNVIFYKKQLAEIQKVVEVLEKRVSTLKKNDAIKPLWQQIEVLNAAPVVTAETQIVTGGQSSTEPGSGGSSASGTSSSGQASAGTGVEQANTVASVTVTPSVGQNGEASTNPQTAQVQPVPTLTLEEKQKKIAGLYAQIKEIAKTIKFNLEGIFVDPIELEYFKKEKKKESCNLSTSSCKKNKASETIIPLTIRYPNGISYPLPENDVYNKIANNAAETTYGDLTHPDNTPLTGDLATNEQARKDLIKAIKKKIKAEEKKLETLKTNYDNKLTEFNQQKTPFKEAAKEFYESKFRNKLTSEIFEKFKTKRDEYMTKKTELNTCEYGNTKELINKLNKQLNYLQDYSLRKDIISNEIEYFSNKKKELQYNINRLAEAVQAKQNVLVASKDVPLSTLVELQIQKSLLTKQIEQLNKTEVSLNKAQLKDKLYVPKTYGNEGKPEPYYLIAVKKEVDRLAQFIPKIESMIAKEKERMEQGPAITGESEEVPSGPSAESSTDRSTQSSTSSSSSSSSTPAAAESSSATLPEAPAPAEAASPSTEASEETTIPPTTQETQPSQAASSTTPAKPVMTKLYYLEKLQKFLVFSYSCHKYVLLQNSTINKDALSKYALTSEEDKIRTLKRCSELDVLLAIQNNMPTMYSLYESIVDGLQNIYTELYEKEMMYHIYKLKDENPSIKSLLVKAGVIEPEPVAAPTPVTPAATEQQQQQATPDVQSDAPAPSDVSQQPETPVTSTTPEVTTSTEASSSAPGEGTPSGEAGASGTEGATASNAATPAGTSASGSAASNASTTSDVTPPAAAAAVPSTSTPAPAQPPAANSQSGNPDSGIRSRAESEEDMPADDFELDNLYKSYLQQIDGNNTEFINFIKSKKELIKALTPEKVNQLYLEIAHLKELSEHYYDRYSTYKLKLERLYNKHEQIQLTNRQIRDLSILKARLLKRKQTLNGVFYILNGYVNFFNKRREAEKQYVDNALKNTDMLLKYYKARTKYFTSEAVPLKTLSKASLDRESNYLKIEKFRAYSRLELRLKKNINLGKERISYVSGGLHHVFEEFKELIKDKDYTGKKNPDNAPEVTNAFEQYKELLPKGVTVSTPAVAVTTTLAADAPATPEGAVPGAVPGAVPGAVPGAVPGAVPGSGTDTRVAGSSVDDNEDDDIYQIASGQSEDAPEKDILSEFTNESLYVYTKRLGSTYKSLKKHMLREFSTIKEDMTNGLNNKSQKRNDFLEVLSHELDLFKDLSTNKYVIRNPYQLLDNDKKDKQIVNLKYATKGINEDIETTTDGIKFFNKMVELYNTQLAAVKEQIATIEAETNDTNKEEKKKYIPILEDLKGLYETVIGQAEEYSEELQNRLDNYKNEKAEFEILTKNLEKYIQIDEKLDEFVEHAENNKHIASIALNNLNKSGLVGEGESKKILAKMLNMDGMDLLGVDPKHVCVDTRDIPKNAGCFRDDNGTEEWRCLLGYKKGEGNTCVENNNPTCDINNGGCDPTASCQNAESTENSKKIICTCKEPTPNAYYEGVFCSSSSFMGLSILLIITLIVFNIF

Binder | binding result [1] | Ka [2] | Kd [2]
B1 | binds | – | –
B2 | binds | – | –
B3 | binds | – | –
B4 | binds | – | –
B5 | – | 4.48e+07 M⁻¹ | 23 nM
B6 | – | 3.94e+07 M⁻¹ | 23 nM
B7 | – | 3.32e+07 M⁻¹ | 30.1 nM
B8 | – | 2.33e+07 M⁻¹ | 31.1 nM
B9 | – | 1.2e+07 M⁻¹ | 84.1 nM
